# Laboratory results from the nanobody polyreactivity screen of Harvey et al. (2022).
# Assay: yeast display, Sf9 membrane polyspecificity reagent, FACS + sequencing; frameworks hold sequencing errors
# Method in brief: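 In a synthetic yeast display library (Saccharomyces cerevisiae BJ5465), nanobody expression was induced with galactose for 36–48 hours. FACS gates were set low and high (top ~1%) using anti-HA fluorescence for expression and streptavidin fluorescence for binding of the Sf9 membrane reagent. Each polyreactivity label is drawn from the gate of origin.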
row,Sequence,polyreactivity (PSR sort gate)
1,QVQLVESGGGLVQAGGSLRLSCAASGRIFVHYAMGWYRQAPGKERELVAAISRSGGSTYYADSVKGRFTISRDTAKNTVYLQMNSLKPEDTAVYYCNTYPLSQFGPYWSGYDYWGQGTQVTVSS,high polyreactivity
2,QVQLVESGGGLVQAGGSLRLSCAASGRIFVINAMGWYRQAPGKERELVAAISQSGGSTYYADSVKGRFTISRDNAKNTVYLQMNSLKPEDTAVYYCNALSNVPYDYWGQGTQVTVSS,low polyreactivity
3,QVQLVESGGGLVQAGGSLRLSCAASGRIFVINAMVWYRQAPGKERELVAGITSSGNTNYADSVKGRFTISRDNAKNTVYLQMNSLNPEDTAVYYCNAQVYLTWLTYWLYYPPNDYWGQGTQVTVSS,low polyreactivity
4,QVQLVESGGGLVQAGGSLRLSCAASGRIFVIYAMGWYRQAPGKERELVAVINDDGSTNYADSVKGRFTISRDNAKNTVYLQMNSLKPEDTAVYYCAARGGRPLIHHWPWYSWKYDYWGQGTQVTVSS,low polyreactivity
5,QVQLVESGGGLVQAGGSLRLSCAASGRIFVKYAMGWYRQAPGKERELVAAIRSGGSTYYADSVKGRFTISRDNAKNTVYLQMNRLKPEDTAVYYCAAERNKHHYYTEPYDYWGQGTQVTVSS,low polyreactivity
6,QVQLVESGGGLVQAGGSLRLSCAASGRIFVKYAMGWYRQARGKESELVAAISKSGGSTYYADSVKGRFTISRDNAKTTVYLQINILKPEDTAVYYCAADEYYQVSAYDYWGQGTQVTVSS,low polyreactivity
7,QVQLVESGGGLVQAGGSLRLSCAASGRIFVLNAMGWYRQAPGKERELVAAISGSGSRTYYADSVKGRFTISRDNAKNTVYLQMNSLKPEDTAVYYCNTVSRRSEHTYDYWGQGTQVTVSS,high polyreactivity
8,QVQLVESGGGLVQAGGSLRLSCAASGRIFVLNAMGWYRQAPGKERELVAGITDGGSTNYADSVKGRFTISRDNAKNTVYLEMNSLKPEDTAVYYCAAVVYEYLYDFQAFVEDAGYYWGQGTQVTVSS,low polyreactivity
9,QVQLVESGGGLVQAGGSLRLSCAASGRIFVLYTMGWYRQAPGKERELVAAISRRGGNTNYADSVKGRFTISRDNAKNTVYLQMNSLKPEDTAVYFCNARWTGARYYYYPMDYWGQGTQVTVSS,high polyreactivity
10,QVQLVESGGGLVQAGGSLRLSCAASGRIFVPNAMGWYRQAPGKERELVARISRSDGSTYYADSVKGRFTISRDNAKNTVYFPMNSLKPEDTAVYYCAASTTPRWWSFKYYYWGQGTQVTVSS,high polyreactivity
11,QVQLVESGGGLVQAGGSLRLSCAASGRIFVPYAMGWYRQAPGKERELVAGISWSGGSTYYADSVKGRFTISRDNAKNTVYLQMNNLKPEDTPVYYCAAAKRRRPFDYWGQGTQVTVSS,high polyreactivity
12,QVQLVESGGGLVQAGGSLRLSCAASGRIFVPYAMGWYRQAPGKVREFVAAISYRGGSTYYADSVKGRFTISRDNAKNTVYLQMNSLKPEDTAVYYCAKVIPYRGKVTLDYWGQGTQVTVSS,low polyreactivity
13,QVQLVESGGGLVQAGGSLRLSCAASGRIFVQYDMGWYRQAPGKERELVAAINDSGDITYYADSVKGRFTISRDNAKNTVYLQMNSLRPEDTAVYYCAASAAYYGFYKSVTYDYWGQGTQVTVSS,low polyreactivity
14,QVQLVESGGGLVQAGGSLRLSCAASGRIFVRNAMGWYRPAPGKERELVAGITRGGGTNFADSVKGSFTISRDNAKNTVYLQMNSLKPEVTAVYDCNALHRARLFGHYPYESWGHGTQVTVSS,high polyreactivity
15,QVQLVESGGGLVQAGGSLRLSCAASGRIFVRNAMGWYRQAPGKERELVAAISWSSGGPYYADSVKGRFTISRDNAKNTVYLQMNSLKPDDTAVYYCNADPSRAGDYWGQGTQVTVSS,low polyreactivity
16,QVQLVESGGGLVQAGGSLRLSCAASGRIFVRNAMGWYRQAPGKERELVADITNGGSTNYADSVKGRFTISRDNAKNTVYLQMNSLKPEDTAVYYCAADTLGVYDGDYWGQGTQVTVSS,low polyreactivity
17,QVQLVESGGGLVQAGGSLRLSCAASGRIFVRYAKGWYRQAPGKERELVAAISRSGGSTYYADSVKGRFTISRDNAKNTVYLQMNSLKPEDTAVYYCNAAYWRRYYQLEDYWGQGTQVTVSS,high polyreactivity
18,QVQLVESGGGLVQAGGSLRLSCAASGRIFVRYAMGWSRQAPGKEREMVAAISSSGGRTYYADSVKGRFTISRDNAKNTVYLQMNSLNAEDTAVYYCAARWVQYGVRYDYWGQGTQVTVSS,high polyreactivity
19,QVQLVESGGGLVQAGGSLRLSCAASGRIFVRYAMGWYRQAPGKERELVAAISKGGSSTYYADSVKGRFTISRDNAKNTVYLQMNSLKPEDTAVYYCAARVHGTGTLKYPNYYWGQGTQVTVSS,high polyreactivity
20,QVQLVESGGGLVQAGGSLRLSCAASGRIFVRYAMGWYRQAPGKERELVAAISYRGGSTYYADSVKGRFTISRDNAKNTVYLLMNSLKPEDTAVYYCAARNSYGNWSYYYWGQGTQVTLSS,high polyreactivity
21,QVQLVESGGGLVQAGGSLRLSCAASGRIFVRYAMGWYRQAPGKERELVATITKNGGRTYYADSVKGRFTISRDNAKNTVYLQMNSLKPEDTAVYYCAARPTYVADHLRYGYWGQGTQVTVSS,high polyreactivity
22,QVQLVESGGGLVQAGGSLRLSCAASGRIFVRYAMGWYRQAPGKESEFVADIDGGGGRTYADSVKGRFTISRDNAKNTVYLLMNSLKPEDTAVYYCNAYVYSIHWCDLYWSEYDYWGQGTQVTVSS,high polyreactivity

row,Sequence,polyreactivity (PSR sort gate)
1,QVQLVESGGGLVQAGGSLRLSCAASGRIFVRYVMGWYRQAPGKERELVAAITKSGASTYYADSVKGRFTISRDNAKNTVYLQMNSLKPEDTAVYYCNRDLVDSYGYWGQGTQVTVSS,high polyreactivity
2,QVQLVESGGGLVQAGGSLRLSCAASGRIFVSNAMGWYRQAPGKERELVAAISKSGGRTYYADSVKGRFTISRVNAKNTVYLQMNSLKPEDTAVYYCAARSRVSPRYDYWGQGTQVTVSS,high polyreactivity
3,QVQLVESGGGLVQAGGSLRLSCAASGRIFVSNARGWYRQSPGKECELVAAISKSAARTAYADSVKGRFTISRDTAKNTVYLQMNSLKPEDTAVYYCNADRYRLYGESKGEGNYWGQGTQVTVSS,high polyreactivity
4,QVQLVESGGGLVQAGGSLRLSCAASGRIFVSNGMGWYRQAPGKESELVAVIRSSTGSTYYADSVKGRFTISRDNAKNTVYLQMNSLKPEDTAVYYCAAPNPFFEPSEYDYWAQGTQVTVSS,low polyreactivity
5,QVQLVESGGGLVQAGGSLRLSCAASGRIFVSYAMGWYRQAPGKERELVAAINWNGDRTYYADSVKGRFTISRDNAKNTVYLQMNSLKPEDSAVYYCNTDSILLPYDYWGQGTQVTVSS,low polyreactivity
6,QVQLVESGGGLVQAGGSLRLSCAASGRIFVSYAMGWYRQAPGKERELVAAINWNGDRTYYADSVKGRFTISRDNATNTVYLQMNSLKPEDTAVYYCNTDSILLPYDYWGQGTQVTVSS,low polyreactivity
7,QVQLVESGGGLVQAGGSLRLSCAASGRIFVSYAMGWYRQAPGKERELVAGISSSGGSTYYADSVKGRFTISRDNAKNTVYLQMNSLKPEDTAVYYCNTDQRSRMDYWGQGTQVTVSS,low polyreactivity
8,QVQLVESGGGLVQAGGSLRLSCAASGRIFVTNAMGWYRQAPGKERELVASISSGGRTHYADSVKGRFTISRDNAKNTVYLQMNSLKPEDTAVYYCAKPPLYYYPALRGEEFYYWGQGTQVTVSS,low polyreactivity
9,QVQLVESGGGLVQAGGSLRLSCAASGRIFVTNDMGWYRQAPGKETELVAAINWNGDSTNYADSVKGRFTISRDNAKNTVYLQLNSLKPEDTAVYYCAAGWFTRDTLAGYDYWGKGTQVTVSS,low polyreactivity
10,QVQLVESGGGLVQAGGSLRLSCAASGRIFVVNAMGWYRQAPGNERELVAAISSSSDSTYYADSVKGRCTISRDNAKNTVYLQMNSLKPEDTAVYYCAADYHYDGYWIYDYWGQGTQVTVSS,high polyreactivity
11,QVQLVESGGGLVQAGGSLRLSCAASGRIFVVNTMGWYRQAPGKERELVAAISFSGVSTYYADSVKGRFTISRDNAKNTVYLQMISLKPEDTAVYYCAAVPYRQYPGGGYWGQGTQVTVSS,low polyreactivity
12,QVQLVESGGGLVQAGGSLRLSCAASGRIFVVYAMGWYRQEPGKERELVAAITGGGRTNYADSVKGRFTISRDNAKNTVYLHMNSLKPEATAVYYCAAGTRSDARRYYYWGQGTQVTVSS,low polyreactivity
13,QVQLVESGGGLVQAGGSLRLSCAASGRIFVWNAMGWYRQAPGKERELVAAITSSGGNTYYADSVKGRFTISRDNAKNNVYLQMNSLKQEDTAVYYCAAAGGAWARYRFNYWGQGTQVTVSS,high polyreactivity
14,QVQLVESGGGLVQAGGSLRLSCAASGRIFVWYDMGWYRQAPGKERELVAAISWGGGTNYADSVKGRFTISRDNAKNTVYLQMNSLKPEDTAVYYCAAAPSYYYFVRYVPSDIEGYWGQGTQVTVSS,low polyreactivity
15,QVQLVESGGGLVQAGGSLRLSCAASGRIFVYNAMGWYRQAPGKERELVAAITRGGSTYYADSVKGRFTISRDNAKNTVYLQMNSLNPEDTAVYYCASDYQRNDFRWYDYWGQGTQVTVSS,low polyreactivity
16,QVQLVESGGGLVQAGGSLRLSCAASGRIFVYNAMGWYRQAPGKERELVASITSSGGSTYYADSVKGRFTISRDNAKNTVYLQMNSLKPEDTAVYYCAADVQPDTRSTPEMDYWGQGTQVTVSS,low polyreactivity
17,QVQLVESGGGLVQAGGSLRLSCAASGRIFVYYAMGGYRQAPGKERELVATISTGGSTYYADSVKGRFTISRDNAKNTVYLQMNSLKPEDTAVYYCASDNVNLYLAYYYKGDYWGQGTQVTVSS,low polyreactivity
18,QVQLVESGGGLVQAGGSLRLSCAASGRIFVYYAMGWYRQAPGKERELVAAITYSVDSTYYADSVKGRFTISRDNAKNTVYLQKNSLKPEDTAVYYCATDVDWAYGYQYEDWGQGTQVPVSS,low polyreactivity
19,QVQLVESGGGLVQAGGSLRLSCAASGRIFVYYAMGWYRQAPGKERELVASISYSGASTYYADSVKGRFTISRDNAKNTVYLQMNSLKPEDTAVYYCNTDGDDFFHVIYDYWGQGTQVTVSS,low polyreactivity
20,QVQLVESGGGLVQAGGSLRLSCAASGRIFVYYTMGWYRQAPGKERELVAAISTGGRTHYADSVKGRFTISRDNAKNTVYLQMNSLKPEDTAVYYCNAASWNGGLFQTKYGYWGQGTQVTVSS,high polyreactivity
21,QVQLVESGGGLVQAGGSLRLSCAASGRIFWDNALGWYRKAPGTERELVAAISDSVVITYYADSVKGRFTISRDNAKNTVYLQMNSLKPEDSAVYYCAAGGWPYSGGWFFQPNYDYWGQGTQVTVSS,low polyreactivity
